The values below come from the supplement of paper PMC10724198.

Data set [1] has as its system Saccharomyces cerevisiae. Description: protein stability index of tFT-peptide fusion (C-terminal peptide) (PSI (0-1 scale)); higher = more stable (slower turnover). Here is the method:
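MPS profiling in S. cerevisiae of the tFT-X12 degron library: putative degron peptides plus stable controls, 12 aa, fused to the C-terminus of a sfGFP-mCherry timer. Cells are FACS-sorted into 8 mCherry/sfGFP bins and deep-sequenced. PSI runs from 0 (unstable) to 1 (stable). Backgrounds are wild type, das1Δ and doa10Δ at 30 °C, and wild type, das1Δ, cdc34-1 and cdc53-1 at 37 °C; 2-3 technical replicates each.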

For data set [2], the system named is Saccharomyces cerevisiae. The data set is described as above. The following applies: genetic background: wild type; temperature: 30 C.
[3] abbreviates: genetic background: cdc34-1, temperature: 37 C.
Where [4] appears, read: genetic background: cdc53-1, temperature: 37 C.
Where [5] appears, read: genetic background: das1 deletion, temperature: 30 C.
[6] abbreviates: genetic background: das1 deletion, temperature: 37 C.
The mark [7] stands for this setting: genetic background: doa10 deletion, temperature: 30 C.
Setting [8] is: genetic background: wild type, temperature: 30 C.
Setting [9] is: genetic background: wild type, temperature: 37 C.

± gives the standard deviation of the averaged measurements.
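Further: PSI is a weighted mean of sequencing reads over stability bins, variants kept only with over 10 reads, mCherry proximal and sfGFP distal, peptide attached via GGGS linker.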

For the sequence CLLDVVMVVERG, the protein stability index came to 0.384 ± 0.055 in the data set with Saccharomyces cerevisiae [1] (setting [3]); 0.432 ± 0.0095 with Saccharomyces cerevisiae [1] (setting [4]); 0.347 ± 0.032 in the data set with Saccharomyces cerevisiae [1] (setting [5]); 0.4016 ± 0.0028 in the data set with Saccharomyces cerevisiae [1] (setting [6]); 0.364 ± 0.035 in the data set with Saccharomyces cerevisiae [1] (setting [7]); 0.347 ± 0.016 in the data set with Saccharomyces cerevisiae [1] (setting [8]). The protein stability index turned out to be 0.392 ± 0.0043 in the data set on Saccharomyces cerevisiae [1] (setting [9]) and 0.365 ± 0.012 in the data set on Saccharomyces cerevisiae [2].
On to CPMFVKFFFCLY, for which the protein stability index with Saccharomyces cerevisiae [1] (setting [3]) is 0.448 ± 0.027; with Saccharomyces cerevisiae [1] (setting [4]), 0.462 ± 0.011; with Saccharomyces cerevisiae [1] (setting [5]), 0.465 ± 0.036; in the data set with Saccharomyces cerevisiae [1] (setting [6]), 0.508 ± 0.019; in the data set on Saccharomyces cerevisiae [1] (setting [7]) it was 0.479 ± 0.013; in the data set with Saccharomyces cerevisiae [1] (setting [8]), 0.41 ± 0.021. In addition, the protein stability index in the data set on Saccharomyces cerevisiae [1] (setting [9]) worked out at 0.481 ± 0.0055; in the data set with Saccharomyces cerevisiae [2] it was 0.405 ± 0.024.
CRGLSWRMITCL: the protein stability index came out at 0.493 ± 0.035 in the data set on Saccharomyces cerevisiae [1] (setting [3]); 0.59 ± 0.049 in the data set on Saccharomyces cerevisiae [1] (setting [4]); 0.484 ± 0.016 in the data set on Saccharomyces cerevisiae [1] (setting [5]); 0.6459 ± 0.00088 in the data set on Saccharomyces cerevisiae [1] (setting [6]); 0.125 ± 0.011 in the data set on Saccharomyces cerevisiae [1] (setting [7]); 0.14 ± 0.015 in the data set with Saccharomyces cerevisiae [1] (setting [8]). The protein stability index in the data set on Saccharomyces cerevisiae [1] (setting [9]) turned out to be 0.176 ± 0.02; in the data set with Saccharomyces cerevisiae [2], 0.225 ± 0.012.
As to CRLRYSILWFRL, the protein stability index was 0.104 ± 0.024 in the data set with Saccharomyces cerevisiae [1] (setting [3]); 0.09746 ± 0.00035 with Saccharomyces cerevisiae [1] (setting [4]); 0.245 ± 0.033 with Saccharomyces cerevisiae [1] (setting [5]); 0.309 ± 0.032 in the data set on Saccharomyces cerevisiae [1] (setting [6]); 0.201 ± 0.016 with Saccharomyces cerevisiae [1] (setting [7]); 0.124 ± 0.017 in the data set with Saccharomyces cerevisiae [1] (setting [8]). The protein stability index in the data set with Saccharomyces cerevisiae [1] (setting [9]) came to 0.155 ± 0.006; in the data set on Saccharomyces cerevisiae [2], 0.152 ± 0.017.
With CRRQLKVLKSMS, the protein stability index with Saccharomyces cerevisiae [1] (setting [3]) amounted to 0.581 ± 0.072; in the data set on Saccharomyces cerevisiae [1] (setting [4]) it was 0.697 ± 0.025; in the data set with Saccharomyces cerevisiae [1] (setting [5]), 0.653 ± 0.023; with Saccharomyces cerevisiae [1] (setting [6]), 0.6892 ± 0.0061; in the data set with Saccharomyces cerevisiae [1] (setting [7]), 0.148 ± 0.021; in the data set on Saccharomyces cerevisiae [1] (setting [8]), 0.151 ± 0.03. The protein stability index with Saccharomyces cerevisiae [1] (setting [9]) worked out at 0.31 ± 0.013; in the data set with Saccharomyces cerevisiae [2], 0.242 ± 0.039.
With CSFHFSLFFLRV, the protein stability index in the data set with Saccharomyces cerevisiae [1] (setting [3]) is 0.3793 ± 0.0022; with Saccharomyces cerevisiae [1] (setting [4]), 0.426 ± 0.048; with Saccharomyces cerevisiae [1] (setting [5]), 0.356 ± 0.027; in the data set on Saccharomyces cerevisiae [1] (setting [6]), 0.4589 ± 0.0031; in the data set with Saccharomyces cerevisiae [1] (setting [7]) it was 0.485 ± 0.042; in the data set with Saccharomyces cerevisiae [1] (setting [8]), 0.332 ± 0.014. Moreover, the protein stability index amounted to 0.422 ± 0.0073 with Saccharomyces cerevisiae [1] (setting [9]) and 0.334 ± 0.037 with Saccharomyces cerevisiae [2].
CSRVVGLFFLVV: the protein stability index in the data set on Saccharomyces cerevisiae [1] (setting [3]) is 0.5355 ± 0.0037; in the data set on Saccharomyces cerevisiae [1] (setting [4]), 0.62 ± 0.019; in the data set on Saccharomyces cerevisiae [1] (setting [5]), 0.427 ± 0.04; in the data set with Saccharomyces cerevisiae [1] (setting [6]), 0.649 ± 0.042; with Saccharomyces cerevisiae [1] (setting [7]), 0.371 ± 0.0081; with Saccharomyces cerevisiae [1] (setting [8]), 0.413 ± 0.033. Moreover, the protein stability index worked out at 0.604 ± 0.016 in the data set on Saccharomyces cerevisiae [1] (setting [9]) and 0.432 ± 0.033 with Saccharomyces cerevisiae [2].
CVCLWCFLVWAR: the protein stability index in the data set on Saccharomyces cerevisiae [1] (setting [3]) turned out to be 0.307 ± 0.018; in the data set with Saccharomyces cerevisiae [1] (setting [4]), 0.391 ± 0.029; in the data set with Saccharomyces cerevisiae [1] (setting [5]) it was 0.259 ± 0.025; in the data set with Saccharomyces cerevisiae [1] (setting [6]) it was 0.4581 ± 0.0023; with Saccharomyces cerevisiae [1] (setting [7]), 0.259 ± 0.013; in the data set on Saccharomyces cerevisiae [1] (setting [8]), 0.246 ± 0.027. The protein stability index in the data set with Saccharomyces cerevisiae [1] (setting [9]) was 0.436 ± 0.017; in the data set with Saccharomyces cerevisiae [2], 0.384 ± 0.016.
As to CVCPFCVWVSCL, the protein stability index is 0.598 ± 0.066 with Saccharomyces cerevisiae [1] (setting [3]); 0.744 ± 0.054 in the data set with Saccharomyces cerevisiae [1] (setting [4]); 0.51 ± 0.027 in the data set on Saccharomyces cerevisiae [1] (setting [5]); 0.752 ± 0.0091 in the data set on Saccharomyces cerevisiae [1] (setting [6]); 0.242 ± 0.0047 in the data set on Saccharomyces cerevisiae [1] (setting [7]); 0.263 ± 0.032 with Saccharomyces cerevisiae [1] (setting [8]). In addition, the protein stability index in the data set on Saccharomyces cerevisiae [1] (setting [9]) stood at 0.4205 ± 0.0029; in the data set on Saccharomyces cerevisiae [2] it was 0.433 ± 0.081.
Consider CVSFFRCLFLIV, for which the protein stability index in the data set on Saccharomyces cerevisiae [1] (setting [3]) turned out to be 0.217 ± 0.0061; in the data set with Saccharomyces cerevisiae [1] (setting [4]) it was 0.231 ± 0.019; in the data set on Saccharomyces cerevisiae [1] (setting [5]), 0.302 ± 0.028; in the data set with Saccharomyces cerevisiae [1] (setting [6]), 0.3805 ± 0.00051; in the data set on Saccharomyces cerevisiae [1] (setting [7]) it was 0.193 ± 0.0083; in the data set with Saccharomyces cerevisiae [1] (setting [8]), 0.144 ± 0.013. Besides, the figures for the protein stability index in the data set on Saccharomyces cerevisiae [1] (setting [9]) and in the data set on Saccharomyces cerevisiae [2] were 0.194 ± 0.017 and 0.168 ± 0.0043, respectively.
Consider CWYVCSFWPYVV, for which the protein stability index in the data set on Saccharomyces cerevisiae [1] (setting [3]) is 0.366 ± 0.061; in the data set on Saccharomyces cerevisiae [1] (setting [4]), 0.6476 ± 0.0021; in the data set with Saccharomyces cerevisiae [1] (setting [5]) it was 0.548 ± 0.022; in the data set with Saccharomyces cerevisiae [1] (setting [6]), 0.69 ± 0.0077; in the data set on Saccharomyces cerevisiae [1] (setting [7]), 0.0885 ± 0.0085; in the data set on Saccharomyces cerevisiae [1] (setting [8]) it was 0.089 ± 0.027. Moreover, the results for the protein stability index with Saccharomyces cerevisiae [1] (setting [9]) and in the data set with Saccharomyces cerevisiae [2] were 0.0762 ± 0.016 and 0.174 ± 0.013, respectively.
As to DAGSSYRFFRFI, the protein stability index was found to be 0.693 ± 0.071 in the data set on Saccharomyces cerevisiae [1] (setting [3]); 0.755 ± 0.011 in the data set with Saccharomyces cerevisiae [1] (setting [4]); 0.661 ± 0.011 in the data set on Saccharomyces cerevisiae [1] (setting [5]); 0.739 ± 0.0078 in the data set on Saccharomyces cerevisiae [1] (setting [6]); 0.315 ± 0.0095 with Saccharomyces cerevisiae [1] (setting [7]); 0.344 ± 0.01 with Saccharomyces cerevisiae [1] (setting [8]). Further, the protein stability index in the data set on Saccharomyces cerevisiae [1] (setting [9]) is 0.578 ± 0.0081; in the data set with Saccharomyces cerevisiae [2], 0.425 ± 0.022.
DFFTSFSLFFFL: the protein stability index in the data set on Saccharomyces cerevisiae [1] (setting [3]) amounted to 0.674 ± 0.028; with Saccharomyces cerevisiae [1] (setting [4]) it was 0.7814 ± 0.0048; in the data set on Saccharomyces cerevisiae [1] (setting [5]), 0.635 ± 0.036; with Saccharomyces cerevisiae [1] (setting [6]), 0.736 ± 0.008; with Saccharomyces cerevisiae [1] (setting [7]), 0.638 ± 0.051; in the data set on Saccharomyces cerevisiae [1] (setting [8]) it was 0.636 ± 0.018. The protein stability index in the data set on Saccharomyces cerevisiae [1] (setting [9]) was found to be 0.701 ± 0.008; with Saccharomyces cerevisiae [2], 0.0727 ± 0.039.
With DLIGSVRRLFCV, the protein stability index with Saccharomyces cerevisiae [1] (setting [3]) came to 0.651 ± 0.042; in the data set on Saccharomyces cerevisiae [1] (setting [4]), 0.725 ± 0.013; in the data set with Saccharomyces cerevisiae [1] (setting [5]) it was 0.621 ± 0.014; with Saccharomyces cerevisiae [1] (setting [6]), 0.728 ± 0.017; in the data set with Saccharomyces cerevisiae [1] (setting [7]) it was 0.18 ± 0.0082; with Saccharomyces cerevisiae [1] (setting [8]) it was 0.214 ± 0.0082. For the same sequence, the protein stability index in the data set on Saccharomyces cerevisiae [1] (setting [9]) came out at 0.303 ± 0.0047; in the data set on Saccharomyces cerevisiae [2], 0.27 ± 0.042.
For DLLKAILKIKSL, the protein stability index in the data set with Saccharomyces cerevisiae [1] (setting [3]) stood at 0.579 ± 0.095; in the data set on Saccharomyces cerevisiae [1] (setting [4]) it was 0.704 ± 0.05; in the data set on Saccharomyces cerevisiae [1] (setting [5]), 0.6279 ± 0.0037; in the data set on Saccharomyces cerevisiae [1] (setting [6]), 0.7476 ± 0.0011; with Saccharomyces cerevisiae [1] (setting [7]) it was 0.104 ± 0.0099; with Saccharomyces cerevisiae [1] (setting [8]) it was 0.0962 ± 0.017. Besides, the protein stability index is 0.162 ± 0.049 in the data set with Saccharomyces cerevisiae [1] (setting [9]) and 0.171 ± 0.054 with Saccharomyces cerevisiae [2].
For the sequence GFLGMFFFWFAL, the protein stability index is 0.588 ± 0.0078 with Saccharomyces cerevisiae [1] (setting [3]); 0.648 ± 0.05 in the data set with Saccharomyces cerevisiae [1] (setting [4]); 0.4628 ± 0.0043 with Saccharomyces cerevisiae [1] (setting [5]); 0.635 ± 0.011 in the data set with Saccharomyces cerevisiae [1] (setting [6]); 0.461 ± 0.012 with Saccharomyces cerevisiae [1] (setting [7]); 0.473 ± 0.022 in the data set on Saccharomyces cerevisiae [1] (setting [8]). Also, the protein stability index in the data set on Saccharomyces cerevisiae [1] (setting [9]) amounted to 0.579 ± 0.018.
